Laboratory results published in article PMC9443353.

Columns and labels:
[1] = molecular target: T1, DENV2 NS1 (Dengue virus serotype 2) (UniProt Q9WDA6); experiment: filter binding with qPCR
T1 sequence: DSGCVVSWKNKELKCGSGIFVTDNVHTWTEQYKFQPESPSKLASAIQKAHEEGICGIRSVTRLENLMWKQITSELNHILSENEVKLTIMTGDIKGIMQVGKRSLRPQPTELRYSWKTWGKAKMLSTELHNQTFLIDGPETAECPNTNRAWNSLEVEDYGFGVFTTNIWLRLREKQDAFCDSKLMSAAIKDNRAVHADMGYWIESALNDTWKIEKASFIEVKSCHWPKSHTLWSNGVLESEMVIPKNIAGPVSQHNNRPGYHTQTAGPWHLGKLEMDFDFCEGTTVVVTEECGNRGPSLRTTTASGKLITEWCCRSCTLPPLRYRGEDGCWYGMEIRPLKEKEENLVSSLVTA

[2] = molecular target: T2, DENV4 NS1 (Dengue virus serotype 4) (UniProt Q2YHF0); experiment: filter binding with qPCR; conditions: ELONA: borate buffer (60 mM in selection), 37 °C, 30 min, pH not stated; specificity: selection buffer, filtration, qPCR; FET: human serum as gate electrolyte …
T2 sequence: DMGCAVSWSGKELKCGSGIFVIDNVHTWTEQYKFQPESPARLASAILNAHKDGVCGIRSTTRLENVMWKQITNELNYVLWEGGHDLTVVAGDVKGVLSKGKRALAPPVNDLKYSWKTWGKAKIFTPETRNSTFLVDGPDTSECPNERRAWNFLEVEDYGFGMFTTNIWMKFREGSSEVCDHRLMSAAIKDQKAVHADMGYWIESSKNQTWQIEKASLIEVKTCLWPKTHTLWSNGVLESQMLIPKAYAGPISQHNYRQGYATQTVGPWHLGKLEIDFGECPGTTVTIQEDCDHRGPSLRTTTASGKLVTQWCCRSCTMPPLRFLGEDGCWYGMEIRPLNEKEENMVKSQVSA

For “CTTCTGCCCGCCTCCTTCCGGGCCCCGGGGGGTGTCCAGGCCCATGCGTCGTCCGCGGGGAGACGAGATAGGCGGACACT [ZIKV60]”, the binding signal (ratio ZIKV NS1/DENV2 NS1 bound) [1] was 14.8 and the binding signal (ratio ZIKV NS1/DENV4 NS1 bound) [2] was 14.8.
